The values below come from patent US20180291335A1, “MODIFIED POLYNUCLEOTIDES FOR ALTERING CELL PHENOTYPE” (ModernaTX, Inc., priority 2012, published 2018).

One data set has as its system rabbit reticulysates. Briefly: G-CSF modified mRNA in rabbit reticulysates, G-CSF ELISA. The conditions noted are these: 250 ng of modified mRNA. It counts as biochemical. As to the method:
(§1) To assess the activity of all our different chemical modifications in the context of a second open reading frame, we replicated experiments previously conducted using luciferase mRNA, with human G-CSF mRNA. […] The mutant T7 polymerase was obtained commercially (Durascribe® T7 Transcription kit (Cat. No. DS010925) (Epicentre®, Madison, Wis.).
(§2) The modified RNA in Tables 27 and 28 were transfected in vitro in HeLa cells or added to rabbit reticulysates (250 ng of modified mRNA) as indicated. […] In Table 27, “NT” means not tested.

The subject of data set [1] is HeLa cells. Briefly: Luciferase in HeLa cells using a combination of modifications. The conditions noted are these: 83 ng luciferase modified RNA, 18 to 22 hours. It counts as cell-based, human. As for the experimental part:
To evaluate using of 2′fluoro-modified mRNA in combination with other modification a series of mRNA were transcribed using either wild-type T7 polymerase (non-fluoro-containing compounds) or using mutant T7 polymerases (fluyoro-containing compounds) as described in Example 86. All modified mRNA were tested by in vitro transfection in HeLa cells.
(§3) The day before transfection, 20,000 HeLa cells (ATCC no. CCL-2; Manassas, Va.) were harvested by treatment with Trypsin-EDTA solution (LifeTechnologies, Grand Island, N.Y.) and seeded in a total volume of 100 ul EMEM medium (supplemented with 10% FCS and 1× Glutamax) per well in a 96-well cell culture plate (Corning, Manassas, Va.). The cells were grown at […] in 5% CO2 atmosphere overnight. […] Lipofectamine 2000 (LifeTechnologies, Grand Island, N.Y.) was used as transfection reagent and 0.2 ul were diluted in 10 ul final volume of OPTI-MEM. After 5 minutes of incubation at room temperature, both solutions were combined and incubated an additional 15 minute at room temperature. Then the 20 ul combined solution was added to the 100 ul cell culture medium containing the HeLa cells and incubated at room temperature.
(§4) After 18 to 22 hours of incubation cells expressing luciferase were lysed with 100 ul of Passive Lysis Buffer (Promega, Madison, Wis.) according to manufacturer instructions. Aliquots of the lysates were transferred to white opaque polystyrene 96-well plates (Corning, Manassas, Va.) and combined with 100 ul complete luciferase assay solution (Promega, Madison, Wis.). The lysate volumes were adjusted or diluted until no more than 2 mio relative light units (RLU) per well were detected for the strongest signal producing samples and the RLUs for each chemistry tested are shown in Table 26. The plate reader was a BioTek Synergy H1 (BioTek, Winooski, Vt.). The background signal of the plates without reagent was about 200 relative light units per well.

For data set [2], the system named is HeLa cells. Briefly: In vitro screening in HeLa cells, luciferase modified RNA. It counts as cell-based, human. The note with it: HeLa cells, 83 ng luciferase modified RNA, 18 to 22 hours. As for the experimental part: as §3
as §4, with “19.” for “26.”

For data set [3], the system named is Rabbit Reticulocyte Lysate. Briefly: In vitro screening in rabbit reticulocyte lysates, luciferase mRNA translation. In kind it is biochemical. The note with it: 250 ng luciferase mRNA, 60 minutes, 30° C. As to the method:
The diluted luciferase was added to 40 ul of freshly prepared Rabbit Reticulocyte Lysate and the in vitro translation reaction was done in a standard 1.5 mL polypropylene reaction tube (Thermo Fisher Scientific, Waltham, Mass.) at 30° C. in a dry heating block. The translation assay was done with the Rabbit Reticulocyte Lysate (nuclease-treated) kit (Promega, Madison, Wis.) according to the manufacturer's instructions. The reaction buffer was supplemented with a one-to-one blend of provided amino acid stock solutions devoid of either Leucine or Methionine resulting in a reaction mix containing sufficient amounts of both amino acids to allow effective in vitro translation.
After 60 minutes of incubation, the reaction was stopped by placing the reaction tubes on ice. Aliquots of the in vitro translation reaction containing luciferase modified RNA were transferred to white opaque polystyrene 96-well plates (Corning, Manassas, Va.) and combined with 100 ul complete luciferase assay solution (Promega, Madison, Wis.). The volumes of the in vitro translation reactions were adjusted or diluted until no more than 2 mio relative light units (RLUs) per well were detected for the strongest signal producing samples and the RLUs for each chemistry tested are shown in Table 20. The plate reader was a BioTek Synergy H1 (BioTek, Winooski, Vt.). The background signal of the plates without reagent was about 200 relative light units per well.

For data set [4], the system named is peripheral blood mononuclear cells (PBMC). Briefly: In vitro screening in PBMC: G-CSF protein expression by ELISA. In kind it is cell-based, human. An outline of the steps: (§5)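 Read-out: ELISA of frozen-stored culture supernatants for secreted G-CSF and induced cytokines.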
A further data set relates to interferon-alpha (IFN-α). The data set is described as follows: In vitro screening in PBMC: interferon-alpha induction by ELISA. It counts as cell-based, human. The method, boiled down:
as §5
On the technique in general: In an ELISA, binding on a coated surface is turned into a signal by an enzyme label.

Data set [5] relates to tumor necrosis factor alpha (TNF-α). The data set is described as follows: In vitro screening in PBMC: tumor necrosis factor alpha induction by ELISA. In kind it is cell-based, human. An excerpt: The supernatant was harvested and stored frozen until analyzed by ELISA to determine the G-CSF protein expression, and the induction of the cytokines interferon-alpha (IFN-α) and tumor necrosis factor alpha (TNF-α).

Data set [6] has as its system HeLa cells. Briefly: G-CSF modified mRNA transfected in HeLa cells, G-CSF ELISA. It counts as cell-based, human. The note with it: HeLa cells, ELISA. As to the method: as §1, §2
[7] abbreviates: PBMC Donor 1, 500 ng G-CSF mRNA.
Where [8] appears, read: PBMC Donor 1, 500 ng G-CSF mRNA, listed as 5-methylcytosine and pseudouridine (2nd set).
[9] abbreviates: PBMC Donor 1, 500 ng G-CSF mRNA, listed as 5-methylcytosine and pseudouridine (3rd set).
Where [10] appears, read: PBMC Donor 1, 500 ng G-CSF mRNA, listed as 5-methylcytosine and pseudouridine (4th set).
Where [11] appears, read: PBMC Donor 2, 500 ng G-CSF mRNA.
[12] abbreviates: PBMC Donor 2, 500 ng G-CSF mRNA, listed as 5-methylcytosine and pseudouridine (2nd set).
The mark [13] stands for this setting: PBMC Donor 2, 500 ng G-CSF mRNA, listed as 5-methylcytosine and pseudouridine (3rd set).
Where [14] appears, read: PBMC Donor 2, 500 ng G-CSF mRNA, listed as 5-methylcytosine and pseudouridine (4th set).
Setting [15] is: PBMC Donor 3, 500 ng G-CSF mRNA.
Where [16] appears, read: PBMC Donor 3, 500 ng G-CSF mRNA, listed as 5-methylcytosine and pseudouridine (2nd set).
Setting [17] is: PBMC Donor 3, 500 ng G-CSF mRNA, listed as 5-methylcytosine and pseudouridine (3rd set).
[18] abbreviates: PBMC Donor 3, 500 ng G-CSF mRNA, listed as 5-methylcytosine and pseudouridine (4th set).

On to “Luciferase control: luciferase control mRNA (SEQ ID NO: 409) fully modified with 5-methylcytosine and N1-methylpseudouridine [reference compound]”, for which, in the data set on rabbit reticulysates, the “G-CSF protein (pg/ml) Rabbit reticulysates cells” value turned out to be 0 pg/mL.

On to “2′Fluoroguanine/N1-methylpsuedouridine: Luciferase mRNA (SEQ ID NO: 409) modified with the named combination”, for which the RLU with HeLa cells [1] worked out at 247 RLU.

On to “5-methylcytidine (m5c): Luciferase mRNA (SEQ ID NO: 409) modified with 5-methylcytidine”, for which the RLU in the data set on HeLa cells [2] is 138,428 RLU; in data set [3] it was 152,989 RLU.

B1: 5-methylcytosine and pseudouridine (1^st set): G-CSF mRNA (SEQ ID NO: 408) fully modified with 5-methylcytosine and pseudouridine; repeated sets/tests (nucleic acid)
chain: GGGAAAUAAGAGAGAAAAGAAGAGUAAGAAGAAAUAUAAGAGCCACCAUGGCCGGUCCCGCGACCCAAAGCCCCAUGAAACUUAUGGCCCUGCAGUUGCUGCUUUGGCACUCGGCCCUCUGGACAGUCCAAGAAGCGACUCCUCUCGGACCUGCCUCAUCGUUGCCGCAGUCAUUCCUUUUGAAGUGUCUGGAGCAGGUGCGAAAGAUUCAGGGCGAUGGAGCCGCACUCCAAGAGAAGCUCUGCGCGACAUACAAACUUUGCCAUCCCGAGGAGCUCGUACUGCUCGGGCACAGCUUGGGGAUUCCCUGGGCUCCUCUCUCGUCCUGUCCGUCGCAGGCUUUGCAGUUGGCAGGGUGCCUUUCCCAGCUCCACUCCGGUUUGUUCUUGUAUCAGGGACUGCUGCAAGCCCUUGAGGGAAUCUCGCCAGAAUUGGGCCCGACGCUGGACACGUUGCAGCUCGACGUGGCGGAUUUCGCAACAACCAUCUGGCAGCAGAUGGAGGAACUGGGGAUGGCACCCGCGCUGCAGCCCACGCAGGGGGCAAUGCCGGCCUUUGCGUCCGCGUUUCAGCGCAGGGCGGGUGGAGUCCUCGUAGCGAGCCACCUUCAAUCAUUUUUGGAAGUCUCGUACCGGGUGCUGAGACAUCUUGCGCAGCCGUGAAGCGCUGCCUUCUGCGGGGCUUGCCUUCUGGCCAUGCCCUUCUUCUCUCCCUUGCACCUGUACCUCUUGGUCUUUGAAUAAAGCCUGAGUAGGAAG
modifications: 5-methylcytosine/pseudouridine modified; Description of Artificial Sequence: Synthetic Transcript Sequence
notes: repeated sets/tests
For the molecule B1, the “G-CSF Protein Expression” value was 2,632 pg/ml in data set [4] (setting [7]); 1,682 pg/ml in data set [4] (setting [8]); 1,595 pg/ml in data set [4] (setting [9]); 264 pg/mL in data set [4] (setting [10]); 1,955 pg/ml in data set [4] (setting [11]); 1,382 pg/ml in data set [4] (setting [12]). Further, the “G-CSF Protein Expression” value in data set [4] (setting [13]) was 1,432 pg/ml; in data set [4] (setting [14]), 350 pg/mL; in data set [4] (setting [15]), 1,373 pg/ml; in data set [4] (setting [16]), 1,036 pg/ml; in data set [4] (setting [17]) it was 955 pg/mL; in data set [4] (setting [18]) it was 182 pg/mL. The “IFN-α Expression” value in the data set with interferon-alpha (IFN-α) (setting [7]) worked out at 88 pg/mL; in the data set with interferon-alpha (IFN-α) (setting [8]), 133 pg/mL; with interferon-alpha (IFN-α) (setting [9]) it was 88 pg/mL; with interferon-alpha (IFN-α) (setting [10]), 131 pg/mL; in the data set on interferon-alpha (IFN-α) (setting [11]), 94 pg/mL; in the data set on interferon-alpha (IFN-α) (setting [12]), 92 pg/mL. The “IFN-α Expression” value in the data set with interferon-alpha (IFN-α) (setting [13]) amounted to 75 pg/mL; in the data set with interferon-alpha (IFN-α) (setting [14]), 28 pg/mL; in the data set on interferon-alpha (IFN-α) (setting [15]), 148 pg/mL; in the data set with interferon-alpha (IFN-α) (setting [16]), 167 pg/mL; in the data set with interferon-alpha (IFN-α) (setting [17]) it was 150 pg/mL; in the data set with interferon-alpha (IFN-α) (setting [18]) it was 18 pg/mL. Further, the “TNF-α Expression” value is 64 pg/mL in data set [5] (setting [7]); 99 pg/mL in data set [5] (setting [8]); 84 pg/mL in data set [5] (setting [9]); 53 pg/mL in data set [5] (setting [10]); 89 pg/mL in data set [5] (setting [11]); 111 pg/mL in data set [5] (setting [12]). Further, the “TNF-α Expression” value in data set [5] (setting [13]) is 89 pg/mL; in data set [5] (setting [14]), 24 pg/mL; in data set [5] (setting [15]), 121 pg/mL; in data set [5] (setting [16]) it was 150 pg/mL; in data set [5] (setting [17]), 130 pg/mL; in data set [5] (setting [18]), 29 pg/mL. The “G-CSF protein (pg/ml) HeLa cells” value in the data set with HeLa cells [6] (G-CSF mRNA, listed as 5-methylcytosine/pseudouridine, Test A) was 609,545 pg/ml; in the data set with HeLa cells [6] (G-CSF mRNA, listed as 5-methylcytosine/pseudouridine, Test B) it was 358,182 pg/ml; in the data set with HeLa cells [6] (G-CSF mRNA, listed as 5-methylcytosine/pseudouridine, Test C), 882,500 pg/ml; in the data set on HeLa cells [6] (G-CSF mRNA, listed as 5-methylcytosine/pseudouridine, Test D), 87,045 pg/ml; with HeLa cells [6] (combination chemistries) it was 301,364 pg/ml. Also, the “G-CSF protein (pg/ml) Rabbit reticulysates cells” value in the data set with rabbit reticulysates (listed as 5-methylcytosine/pseudouridine, Test A) is reported as 119,750 pg/ml; in the data set with rabbit reticulysates (listed as 5-methylcytosine/pseudouridine, Test B), 57,875 pg/ml; with rabbit reticulysates (listed as 5-methylcytosine/pseudouridine, Test C) it was 49,250 pg/ml; with rabbit reticulysates (listed as 5-methylcytosine/pseudouridine, Test D), 47,750 pg/ml.
